Source: PMC7101364, “The biofilm-associated surface protein Esp of Enterococcus faecalis forms amyloid-like fibers” (NPJ Biofilms and Microbiomes, 2020)

Molecular target: the molecule itself
Assay: visible aggregation in tubes; 2 uM rEsp_N in phosphate-citrate buffer, pH 3.6 to 8 tested; aggregates at pH 4.0-4.2 seen as a ring on the glass wall after 24 h at 37 °C, 200 rpm

B1: recombinant Esp_N domain (N-terminal domain of the enterococcal surface protein Esp, amino acids 50-743) (domain or fragment)
chain: QMGEGRLANYSASGNTFQENPGYTKNYNFSDLQFNPKAITGDVLQGNTIDFEVYGKHNIAASTANWEIRLQLDERLAQYVEKIQVDPKKGVGNSRRTFVRINDSLGRPTNIWKVNYIRANDGLFAGAETTDTQTAPNGVITFEKNLDEIFKEIGADNLKSDRLMYRIYLVSHQDDDKIVPGIESTGYFLTDQDDFYNKLDVSENNSDQFKHGSVNTKYEEANIQTKDGSGSTGANGAIILDHKLTKEKNFSYSTSAKGTPWYANYKIDERLVPYVSGIQMHMVQADKVAYNVAFESGKKVADLAIERREGHENYGMGSITDNDLTKLIDFANASPRPIVVRYVLQLTKPLDEILEEMKAADKIEENAPFGEDFIFDSWLSDTNKKLIQNTYGTGYYYLQDIDGDGNPDDKEESGDTNPYIGKPELEEVYDVDTTVKGKVFIHELAGTGHKAQLVDKEGTVLAEKTIAPNEKDGAPISDTVEFEFTGVDSSKLIAKDELKIQIVSPGFDKPEEGSTVIKESPKAVDKQTVVVGFKPDAKESIRNNKNLPEDAEYSWKTEPDTSNVTDSTKGIVTVKIGNRTFDVDVEFAVKASQAMENDATYVPITTTPETTIQSGKPTFDKPDVPLANDAFSVLDVYNKDFGNASVDANTGIVTFTPAKGVGESEPITGTIPIKIVYQDGSVGTTDLAVTVSKN
notes: Enterococcal surface protein Esp of Enterococcus faecalis, amplified from strain 11279; N-terminal domain, amino acids 50-743 of the 1873-residue protein; No cleavage of the tag is mentioned; also called N-terminus of Esp; not shown: His tag (from the vector pET46-Ek/LIC)
B1: binds.
